The Human Domainome abundance scans (Beltran et al. 2025)

B1: Syntaxin-binding protein 4, residues 493 to 538; numbered along this chain, Q6ZWJ1 (parent)
chain: LDMDCLPYGWEEAYTADGIKYFINHVTQTTSWIHPVMSVLNLSRSE
B2: POU domain, class 4, transcription factor 1, residues 266 to 347; numbered along this chain, Q01851 (parent)
chain: RELEAFAERFKQRRIKLGVTQADVGSALANLKIPGVGSLSQSTICRFESLTLSHNNMIALKPILQAWLEEAEGAQREKMNKP

Variants of: B1
Assay: abundance fitness (aPCA) (normalised: wild type 0, dead -1); higher = more abundant; growth selection in yeast, the domain comes from the species named
Details: Homo sapiens

Abundance fitness, by site and new letter:
L1: S 0.28; T -0.004; F -0.163; W -0.334; R -0.874; M 0.148; K 0.331; N -0.101; H -0.269; G -0.525; E 0.068; Y -0.198
D4: K -0.543; L -0.638; Y -0.863; T -0.535; G -0.348; W -0.499; S -0.221; C -0.354; R -0.545; N -0.098; H -0.835; I -0.639; E -0.16; F -0.613; V -0.766; A -0.561; P -0.511
C5: P -0.291; F -0.11; V -0.155; H -0.06; E 0.234; N -0.254; R -0.18; I -0.113; G -0.04; S 0.142; M -0.173; K 0.076; A 0.238; D 0.321; Y -0.268; W -0.533
Y8: H -0.094; A 0.198; K 0.109; F -0.258; G -0.028; C -0.425; I -0.08; D 0.326; E 0.326
M3: Q 0.065; T 0.287; I -0.425; D -0.103; E 0.144; F -0.069; H -0.117; C 0.117; L -0.036; G -0.084; Y -0.458; W -0.692; N 0.354; A -0.058; R 0.027
P7: K -0.649; F -0.616; I -0.984; A -0.646; W -0.629; N -0.714; L -0.711; H -0.669; T -0.483; Q -0.903; G -0.719; R -0.782; S -0.834; E -0.711; M -0.793; V -0.742
D2: K -0.269; N -0.388; S -0.478; G -0.366; E -0.206; V -0.576; Q -0.48; R -0.603; M -0.334; A -0.445; F -0.849; L -0.424; P -0.985; T -0.334; C -0.699; I -0.698
L6: M -0.692; P -0.608; I -0.965; S -0.816; D -0.405; F -0.604; H -0.844; Q -0.817; A -0.707; K -0.266; R -0.644; G -0.754; Y -0.709; E -0.541; T -0.737; W -0.922; V -0.511; N -0.375

Variants of: B2
Assay: as above
Details: Homo sapiens

Abundance fitness: each site, then its substitutions
E77: W -0.145; V -0.005; A -0.044; H -0.092; D 0.006; P -0.08; S -0.024; F -0.16; T -0.064; I -0.063; L -0.053; Q -0.02; Y -0.009; G -0.025; M 0.021; C -0.088
E72: R -0.421; D -0.259; Y -0.138; T -0.244; S -0.229; W -0.415; N -0.35; M -0.349; C -0.416; G -0.267; I -0.179; H -0.456; P -0.348; Q -0.21; L -0.431; V -0.35; K -0.518
N80: Y -0.037; R -0.032; G -0.003; L -0.026; I -0.121; Q 0.091; M -0.004; W -0.089; P 0.073; K -0.001; V 0.098; A 0.117; T -0.007; H 0.019; C 0.064; S 0.051; F -0.043; D -0.007; E 0.078
M79: P 0.029; I 0.008; W -0.015; R -0.025; G 0.009; L 0.001; A 0.004; S -0.024; F 0.024; K 0.039; T -0.021; N 0.023; Q -0.03; D -0.022; V 0.007; Y -0.011
E70: K 0.004; V -0.176; Y -0.145; I -0.161; Q -0.015; H -0.077; L -0.18; M -0.1; R -0.046; S -0.006; W -0.311; P -0.657; F -0.198; T -0.026; G -0.061
G73: Y 0.144; D -0.105; H -0.068; T 0.063; E 0.125; N 0.003; F -0.056; R -0.054; K -0.046; M -0.065; A 0.015; C -0.013; Q 0.043; S -0.027; V 0.071; I 0.121; W -0.205; L 0.056; P -0.259
A74: C 0.012; G -0.044; E 0.025; V -0.005; R -0.008; L 0.006; Y 0.002; P -0.05; H -0.009; F -0.035; N -0.019; D -0.027; W -0.137; K -0.009; Q -0.029; M -0.016; S 0.005; T -0.013
P82: M 0.008; L -0.123; K -0.047; F -0.105; G -0.011; D 0.019; A 0.086; V -0.053; Y 0.095; E -0.005; Q 0.01; W -0.116; T -0.001
A71: I -0.18; T 0.062; G -0.379; R -0.051; S -0.079; W -0.186; Q -0.051; E -0.062; H -0.146; N 0.044; D -0.572; F -0.289; M -0.005; K 0.072; P -0.588; Y -0.353
K78: I -0.026; A 0.089; R 0.047; Y -0.106; S -0.092; P -0.048; D -0.153; V -0.019; Q -0.045; L -0.012; W 0.007; G -0.036; E 0.035; F 0.003; M 0.072; T -0.273
K81: A 0.148; Q -0.042; I -0.112; F 0.198; D -0.024; P -0.075; L 0.043; C 0.1; M -0.059; H -0.432; W 0.027; G 0.021; S -0.016; Y -0.224; T 0.03; V -0.047
R76: M 0.044; G 0.007; N 0.026; E 0.016; C 0.012; Y -0.124; I -0.029; A 0.03; F -0.032; P -0.002; T 0.008; H -0.003; D -0.015; L 0.012; K -0.006; Q -0.003; V -0.009; W -0.056
Q75: M -0.025; D -0.045; Y -0.085; T -0.033; N -0.061; P -0.063; F -0.043; L -0.001; V -0.025; R -0.028; H 0.041; I -0.051; W -0.077; C -0.015; E -0.01; A 0
